According to paper PMC11382572, “Structural and kinetic insights into the stereospecific oxidation of R-2,3-dihydroxypropanesulfonate by DHPS-3-dehydrogenase from Cupriavidus pinatubonensis” (Chemical Science, 2024):

Experiments:
Format in all cases: biochemical, Cupriavidus pinatubonensis
[1] = substrate: O=S(=O)(O)C[C@H](O)CO; assay: purified protein; settings: Zn2+, NAD+
[2] = substrate: O=CC(O)CS(=O)(=O)O; assay: Michaelis-Menten kinetics (apparent KM); LCMS product; settings: Zn2+, NAD+
[3] = substrate: NC(=O)c1ccc[n+]([C@@H]2O[C@H](COP(=O)([O-])OP(=O)(O)OC[C@H]3O[C@@H](n4cnc5c(N)ncnc54)[C@H](O)[C@@H]3O)[C@@H](O)[C@H]2O)c1; assay: X-ray crystal structure by soaking (open conformation); Michaelis-Menten kinetics (apparent KM); settings: Zn2+ nonproductive complex; nicotinamide group disordered, modelled with zero occupancy; varied: cofactor

B1: DHPS-3-dehydrogenase (CpHpsN) (Cupriavidus pinatubonensis JMP134) (protein)
chain: MISYLKKAEKTPQTETATAQKVVTEMLAEIQARGKDAVRQYAKQLDGWSGDIVLTPDQIREQTKDVPAGVRADIDFAIRQVTDFALAQRESLKEFSVELHPGVTAGQRVLPVNVVGCYAPAGRYAHIASAYMGVATAKAAGVKTVVACSSPFRGQGIHPHVLYAFQAAGADVIMALGGVQAIASMAYGLFTGKPADVVVGPGNKFVAEAKRSLYGQVGIDVFAGPSEVAVIADETADPAIVASDLVGQAEHGHESPAWLFTTSRDLADRVMALVPELIAKLPPTARDAATAAWRDYGEVILCGTREEVVEISDRYASEHLEVHTADLDWWLANLTCYGSLFLGEETTVAFGDKTSGPNHVLPTKGAARYSGGLSVHKFMKTLTWQQMTREATRQIGQVTARISRLEGMEAHARTADDRMAKYFPNASFEMGTPVEV
- Km [1]: 1300 ± 150 µM
- kcat/Km [1]: 750 ± 200 M⁻¹ s⁻¹
- Km [2]: 360 ± 60 µM
- kcat/Km [2]: 8600 ± 830 M⁻¹ s⁻¹
- Km [3]: 470 ± 100 µM
- kcat/Km [3]: 3400 ± 1100 M⁻¹ s⁻¹
